Kd data for 37 sequences are collected here from the Immune Epitope Database (IEDB).

One assay deals with HLA-A*30:02. As to the kind of experiment: IEDB peptide-MHC binding, purified MHC/competitive/radioactivity; filed as Kd, often an IC50 or EC50 that approximates it; ≥ and ≤ were set here for values at or beyond the usual limits of such assays.
Another assay deals with HLA-B*15:01. Described as above.
In a further assay the target is HLA-B*51:01. In words: IEDB peptide-MHC binding, purified MHC/competitive/fluorescence; filed as Kd, often an IC50 or EC50 that approximates it; ≥ and ≤ were set here for values at or beyond the usual limits of such assays.
Another assay concerns the target HLA-A*68:02. As to the kind of experiment: IEDB peptide-MHC binding, purified MHC/competitive/radioactivity; filed as Kd, often an IC50 or EC50 that approximates it; ≥ and ≤ were set here for values at or beyond the usual limits of such assays.
Another assay has as its target HLA-B*53:01. Described as above.
In another assay the target is HLA-A*02:06. The assay is described as above.
The target in another assay is HLA-A*01:01. The description is as above.
In another assay the target is HLA-B*44:02. Described as above. The settings on record: source organism: Dengue virus 2 Jamaica/1409/1983.
Another assay concerns the target HLA-B*44:03. The description is as above. The settings on record: source organism: Dengue virus 2 Jamaica/1409/1983.
Another assay addresses HLA-B*40:01. The description is as above.
The target of a further assay is HLA-B*58:01. As to the kind of experiment: IEDB peptide-MHC binding, purified MHC/direct/fluorescence; filed as Kd, often an IC50 or EC50 that approximates it; ≥ and ≤ were set here for values at or beyond the usual limits of such assays.
In the next assay the target is HLA-B*57:01. The description is as above.
For a further assay, the target named is HLA-A*02:01. As to the kind of experiment: IEDB peptide-MHC binding, purified MHC/competitive/radioactivity; filed as Kd, often an IC50 or EC50 that approximates it; ≥ and ≤ were set here for values at or beyond the usual limits of such assays.
In another assay the target is HLA-A*26:01. Described as above.
Another assay addresses HLA-A*24:03. As to the kind of experiment: IEDB peptide-MHC binding, purified MHC/direct/fluorescence; filed as Kd, often an IC50 or EC50 that approximates it; ≥ and ≤ were set here for values at or beyond the usual limits of such assays.
The target in another assay is HLA-A*32:01. As to the kind of experiment: IEDB peptide-MHC binding, purified MHC/competitive/radioactivity; filed as Kd, often an IC50 or EC50 that approximates it; ≥ and ≤ were set here for values at or beyond the usual limits of such assays. The settings on record: source organism: Dengue virus 4 Philippines/H241/1956.
Another assay concerns the target HLA-A*30:01. The assay is described as above. The settings on record: source organism: Dengue virus 4 Philippines/H241/1956.
Another assay has as its target HLA-A*03:01. The assay is described as above. Particulars: source organism: Dengue virus 4 Philippines/H241/1956.
For another assay, the target named is HLA-B*07:02. As to the kind of experiment: IEDB peptide-MHC binding, purified MHC/direct/fluorescence; filed as Kd, often an IC50 or EC50 that approximates it; ≥ and ≤ were set here for values at or beyond the usual limits of such assays. The settings on record: source organism: Orthohantavirus dobravaense.
The target in the next assay is HLA-A*02:03. As to the kind of experiment: IEDB peptide-MHC binding, purified MHC/competitive/radioactivity; filed as Kd, often an IC50 or EC50 that approximates it; ≥ and ≤ were set here for values at or beyond the usual limits of such assays. Particulars: source organism: Hepatitis C virus (isolate BK).
The target in another assay is HLA-A*02:02. The assay is described as above. Particulars: source organism: Hepatitis C virus (isolate BK).
The mark [1] stands for this setting: source organism: Dengue virus 2 Peru/IQT2913/1996.
[2] abbreviates: source organism: Dengue virus 3 Martinique/1243/1999.
Where [3] appears, read: source organism: Dengue virus 3 Singapore/8120/1995.
Where [4] appears, read: source organism: Dengue virus 2 Jamaica/1409/1983.
Setting [5] is: source organism: Vibrio vulnificus YJ016.
Setting [6] is: source organism: Dengue virus 1 Brazil/97-11/1997.
[7] abbreviates: source organism: Dengue virus 4 Philippines/H241/1956.
Setting [8] is: source organism: Vaccinia virus WR.
The mark [9] stands for this setting: source organism: Hepatitis C virus (isolate BK).
Where [10] appears, read: source organism: Orthohantavirus dobravaense.

As for RIKQKGILGY, the equilibrium dissociation constant (Kd) (in general, the constant that tells how readily two partners part at equilibrium) in the assay with HLA-A*30:02 (setting [1]) was 1440 nM; with HLA-B*15:01 (setting [1]), 152 nM. In the assay with HLA-B*51:01 (source organism: Bacillus anthracis str. A0442), EPINMFLFI came in with a Kd of 465 nM.

As to ITIAVASGL, the Kd with HLA-A*68:02 (source organism: Dengue virus 4 Dominica/814669/1981) is 31.1 nM.

Consider NPTVDGIMTI, for which the Kd in the assay with HLA-B*53:01 (setting [2]) is 214 nM. For the sequence LTAAVLLLV, the Kd with HLA-A*68:02 (setting [3]) is 1.36 nM; in the assay with HLA-A*02:06 (setting [3]), 120 nM; with HLA-A*01:01 (setting [3]) it was 16700 nM. For the sequence AEAIFKLTYQ, the values for the Kd in the assay with HLA-B*44:02, with HLA-B*44:03 and with HLA-B*40:01 (setting [4]) were 200 nM, 267 nM and 1430 nM, respectively. For WMSPTYQSW, the Kd with HLA-B*58:01 (setting [5]) stood at 8.3 nM; with HLA-B*57:01 (setting [5]), 62.4 nM. Take AVWDQYKDL: the Kd with HLA-A*02:01 (source organism: Lassa virus Josiah) came to 12500 nM.

In the case of VSGKLIHEW, the Kd with HLA-B*57:01 (source organism: dengue virus type 3) was 43.5 nM. For LTAIANQAAI, the results for the Kd with HLA-A*68:02 (setting [6]) and in the assay with HLA-A*01:01 (setting [6]) were 22.9 nM and 10200 nM, respectively. Take CPNERRAWNF: the Kd with HLA-B*53:01 (setting [7]) came to 70.6 nM. For DTAWDFGSV, the values for the dissociation constant (Kd) in the assay with HLA-A*68:02 (setting [2]) and in the assay with HLA-A*26:01 (setting [2]) were 1.5 nM and 172 nM, respectively. Regarding YACKQILHG, in the assay with HLA-B*15:01 (setting [8]), the equilibrium dissociation constant (Kd) worked out at 2270 nM. NPTAIFLTT: in the assay with HLA-B*53:01 (setting [4]), the Kd was determined as 1680 nM.

Take HPGFTILALF: in the assay with HLA-B*53:01 (setting [2]), the Kd was found to be 1.04 nM.

Turning to MSTYGWNLV, the Kd with HLA-A*68:02 (setting [4]) turned out to be 11.9 nM; with HLA-A*01:01 (setting [4]), 8500 nM. Turning to ITPRSPSVEV, the Kd with HLA-A*68:02 (setting [7]) is 575 nM.

IYTLEYDGF showed a Kd with HLA-A*24:03 (source organism: Mycobacterium tuberculosis) of 74.8 nM. With GTLALSLTF, the Kd came to 1370 nM with HLA-A*32:01 and 36.2 nM with HLA-B*15:01 (setting [7]). In the case of MAVGMVSILA, in the assay with HLA-A*68:02 (setting [4]), the Kd is 3.29 nM. Take EVAETQHGTV: in the assay with HLA-A*68:02 (setting [6]), the Kd amounted to 1.53 nM. Consider PLEGSEDRII, for which the results for the dissociation constant Kd with HLA-A*68:02 (source organism: Homo sapiens) and in the assay with HLA-A*02:01 (source organism: Homo sapiens) were no less than 65200 nM and no less than 70300 nM, respectively. Regarding KLRIKGMSY, the Kd in the assay with HLA-A*30:01 came to 18.6 nM; with HLA-A*03:01 it was 8.36 nM; with HLA-A*30:02 (setting [7]), 79.6 nM; with HLA-B*15:01 (setting [7]), 38.5 nM.

Regarding QIHLAIMAV, in the assay with HLA-A*68:02 (setting [7]), the dissociation constant (Kd) amounted to 287 nM.

Consider VEDYGFGIF, for which the Kd with HLA-B*40:01 (setting [6]) turned out to be 388 nM. Take LPTRCRLEI: the Kd with HLA-B*51:01 (source organism: Kurkino virus) was no less than 20000 nM; with HLA-B*07:02 it was 3.9 nM. Take WELVDKERAL: the Kd in the assay with HLA-B*40:01 (setting [7]) was 24 nM.

For ETQHGTVLV, the Kd with HLA-A*68:02 (setting [6]) amounted to 2.52 nM; with HLA-A*26:01 (setting [6]) it was 4910 nM. For MYLRTIYDL, in the assay with HLA-A*24:03 (source organism: Rhodococcus erythropolis), the Kd was found to be 0.6 nM. In the case of GLRDCTMLV, the Kd with HLA-A*02:01 (source organism: hepatitis C virus genotype 1a) was 421 nM. Turning to VLTDFKTWL, the Kd was determined as 7.3 nM in the assay with HLA-A*02:03; 2300 nM in the assay with HLA-A*68:02 (setting [9]); 140 nM with HLA-A*02:06 (setting [9]); 4.06 nM with HLA-A*02:01 (setting [9]); 1.56 nM in the assay with HLA-A*02:02. As to KALIATATW, the Kd is 12.5 nM in the assay with HLA-B*58:01 (setting [10]) and 25.3 nM with HLA-B*57:01 (setting [10]). Consider EMREQHDAQV, for which the Kd in the assay with HLA-A*68:02 (source organism: Homo sapiens) is 456 nM; with HLA-A*02:06 (source organism: Homo sapiens), no less than 68500 nM. As to AVFMLMETM, the Kd with HLA-B*15:01 (setting [8]) turned out to be 26 nM. Take TLITGNMSF: the dissociation constant (Kd) with HLA-B*15:01 (setting [4]) turned out to be 91.1 nM. YMATTILEM: the Kd in the assay with HLA-B*15:01 (setting [8]) turned out to be 2.17 nM. As for SQHNYRQGY, the dissociation constant Kd in the assay with HLA-A*30:02 (setting [7]) turned out to be 23.5 nM; in the assay with HLA-B*15:01 (setting [7]) it was 3.47 nM.
